Measurements reported in patent US20240285782A1, “METHODS FOR USING BIOADHESIVE AND STERIC INTERACTIONS OF COPOLYMERS WITH AT LEAST TWO MOIETIES TO MINIMIZE ADVERSE EFFECTS MEDIATED BY EXTERNAL INFLUENCES ON CELL, TISSUE, ORGAN SYSTEM, AND ORGANISM BIOLOGY” (priority 2021, published 2024).
Read-outs that look alike come from different tables or passages of the source.

Tests used:
[1] = test system: HCE-T cells
[2] = test system: corneal cell; conditions: low dose exposure; cited from earlier work
[3] = cited from earlier work

| Compound | toxicity (positive control, pilot evaluation FIG. 8) [1] | toxicity to cells, corneal cell death [2] | half-life ([3]; after the first infusion) | half-life ([3]; in steady state) | time to reach steady state ([3]; in vivo) |
| --- | --- | --- | --- | --- | --- |
| CCN(c1nc(N)c(C(=O)N=C(N)N)nc1Cl)C(C)C [EIPA, 5-(N-ethyl-N-isopropyl)amiloride] | toxic | toxic | – | – | – |
| Belnatomab mafodotin: ADC cited as an example for half-life | – | – | 12 days | 14 days | 70 days |
